According to PMC9418424:

Biological target: (AcA4)2KD amphiphilic peptide ((Ac-Ala-Ala-Ala-Ala)2-Lys-Asp-OH)
Test: dynamic light scattering

critical aggregation concentration: 0.8 mM
Substance: (AcA4)2KD amphiphilic peptide ((Ac-Ala-Ala-Ala-Ala)2-Lys-Asp-OH)
